Target: T1, Bst 2.0 DNA polymerase (UniProt P52026)
T1 sequence: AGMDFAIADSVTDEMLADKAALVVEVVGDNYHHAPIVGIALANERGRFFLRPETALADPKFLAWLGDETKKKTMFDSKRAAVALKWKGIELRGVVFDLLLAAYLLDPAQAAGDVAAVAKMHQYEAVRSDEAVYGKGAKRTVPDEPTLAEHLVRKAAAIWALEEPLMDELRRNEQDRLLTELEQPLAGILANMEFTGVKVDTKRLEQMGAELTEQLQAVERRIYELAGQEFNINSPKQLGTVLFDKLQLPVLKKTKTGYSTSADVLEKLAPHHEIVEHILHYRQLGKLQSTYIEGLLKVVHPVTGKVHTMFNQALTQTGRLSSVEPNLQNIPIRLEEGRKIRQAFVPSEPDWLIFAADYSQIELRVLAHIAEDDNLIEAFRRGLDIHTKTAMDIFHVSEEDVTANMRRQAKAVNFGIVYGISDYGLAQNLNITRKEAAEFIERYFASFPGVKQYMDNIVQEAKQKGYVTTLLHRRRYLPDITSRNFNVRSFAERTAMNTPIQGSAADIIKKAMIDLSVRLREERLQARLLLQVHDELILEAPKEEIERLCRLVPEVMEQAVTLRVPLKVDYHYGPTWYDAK
Conditions: N6-allyl-N6-methyladenosine at centre of NNANN, I2-cyclized; mutation rate on all DRACH motifs during reverse transcription; MgSO4, PEG 4000, 37 C

Work on UCGACGUNNANNGGCAUUGCU [NNam6ANN probe] yielded an activity of over 25%.

Reference: US20220364173
